Target: T1, C-terminal domain (CTD) of ARF5-FLucC (Arabidopsis, UniProt P93024 793-902)
T1 construct: In the ARF-ARF tests the same CTD stood both as ARFCTD-FLucC and as ARFCTD-FLucN; one molecule for both; also called ARF5CTD-FLucC; auxin response factor 5; source: Arabidopsis mesophyll protoplasts, transfected, in living cells (SFLC) and in lysate (co-IP); not shown: FLucC (firefly luciferase aa 394-550)
T1 sequence (looked up): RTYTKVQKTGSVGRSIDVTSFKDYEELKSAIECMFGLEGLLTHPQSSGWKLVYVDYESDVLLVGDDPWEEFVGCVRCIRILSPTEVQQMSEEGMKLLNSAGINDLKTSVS
Test: split reporter (BiFC, NanoBiT); SFLC in living Arabidopsis mesophyll protoplasts: Aux/IAA-FLucN or MYB30-FLucN co-expressed with ARFCTD-FLucC or Aux/IAA-FLucC for 6 hr; 10 µg of each construct, 2×10^4 cells, 96-well plate, D-luciferin; relative activity standardised against ARF5CTD-FLucC + IAA28-FLucN
Details: partners not purified

B1: IAA28-FLucN (natural protein, Arabidopsis, UniProt Q9XFM0 1-175, looked up)
chain: MEEEKRLELRLAPPCHQFTSNNNINGSKQKSSTKETSFLSNNRVEVAPVVGWPPVRSSRRNLTAQLKEEMKKKESDEEKELYVKINMEGVPIGRKVNLSAYNNYQQLSHAVDQLFSKKDSWDLNRQYTLVYEDTEGDKVLVGDVPWEMFVSTVKRLHVLKTSHAFSLSPRKHGKE
notes: Arabidopsis transcription repressor IAA28; also called Aux/IAA-FLucN; source: Arabidopsis mesophyll protoplasts, transfected, in living cells; not shown: FLucN (firefly luciferase aa 1-398)
restored luciferase activity, fold over the negative control MYB30-FLucN + ARF5CTD-FLucC: ~350 fold

From paper PMC3212559, “Large-Scale Protein-Protein Interaction Analysis in Arabidopsis Mesophyll Protoplasts by Split Firefly Luciferase Complementation” (PLoS ONE, 2011)
